{"source": "patent US20230203107A1", "about": "“PEPTIDE FOR TREATING SEPSIS DERIVED FROM RV3364C PROTEIN OF MYCOBACTERIUM TUBERCULOSIS” (priority 2021, published 2023)", "molecular_target": "T1, SNX9 BAR domain (Homo sapiens, UniProt Q9Y5X1)", "T1 construct": "different regions 1-595, 1-250, 250-361, and 392-595 of SNX9; expressed in transfected cells; host or cells: 293T (pEF-IRES-Puro expression vector)", "T1 sequence (Q9Y5X1 392-595)": "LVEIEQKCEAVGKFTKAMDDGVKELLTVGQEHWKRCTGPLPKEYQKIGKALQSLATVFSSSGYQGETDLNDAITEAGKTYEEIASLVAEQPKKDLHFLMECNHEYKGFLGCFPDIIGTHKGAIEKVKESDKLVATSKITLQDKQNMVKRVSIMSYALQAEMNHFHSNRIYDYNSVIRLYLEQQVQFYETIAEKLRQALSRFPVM", "format": "cell-based"}
{"substance": "Rv3364c: Rv3364c protein of Mycobacterium tuberculosis, expressed in 293T cells from a Flag-tagged plasmid", "values": [{"measurement": "domain of SNX9 interacting with Rv3364c", "value": "interacted with SNX9 through a Bin-Amphiphysin-Rvs (BAR) domain"}]}
